Laboratory results from patent publication US20100285451A1.

Target: Somatostatin 2 receptor-eYFP-α fusion (E. coli)
Test: cell-based or functional assay

For “somatostatin-14 (from UniProt P61278 103-116) (peptide)”, the EC50, arrestin assay (β-galactosidase complementation of β-arrestin-ω + GPCR-eYFP-α) was 3 nM, the EC50, internalization assay (β-galactosidase complementation of FYVE-ω + GPCR-eYFP-α) was 7 nM and the fold induction, internalization assay was 3 fold.
